# Test results reported in the nanobody polyreactivity screen of Harvey et al. (2022).
# Experiment: yeast display, Sf9 membrane polyspecificity reagent, FACS + sequencing; frameworks hold sequencing errors
# In short: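 A synthetic nanobody library was expressed on Saccharomyces cerevisiae BJ5465 by galactose induction for 36–48 hours. The library was stained for 1 hour at 4 °C with 10% biotinylated, detergent-solubilized Sf9 membrane reagent and enriched with streptavidin microbeads before FACS. Low and high (top ~1%) gates were set on anti-HA fluorescence for expression and streptavidin fluorescence for reagent binding, and each polyreactivity label reflects the gate of origin.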
row,Sequence,polyreactivity (PSR sort gate)
1,QVQLVESGGGLVQAGGSLRLSCAASGRIFVGYAMGWYRQAPGKERELVAAISSRGGSTYYADSVKGRFTISRDNAKNTVYLQMNSLKPEDTAVYYCAKVRTYRYYDGGDYWGQGTQVTVSS,high polyreactivity
2,QVQLVESGGGLVQAGGSLRLSCAASGRIFVHNSMGWYRQAPGKERELVAAISSCGRTYYADSVKGRFTISRDNAKNTVYFQMNSLKPEDTAVYYCNAGRTNRAGRRWPMDYWGQGTHVTVSS,high polyreactivity
3,QVQLVESGGGLVQAGGSLRLSCAASGRIFVHYAMGWYRQAPGKERELVAAITSGSSTNYADSVKGRFTISRDNAKNTVYLQMNSLKPEDTAVYYCAADYSVHLVRDRWFDYWGQGTQVTVSS,low polyreactivity
4,QVQLVESGGGLVQAGGSLRLSCAASGRIFVINAMGWYRQAPGKERELVADITWSGGSTYADSVKGRFTISRDNAKNTVYLLMNSLNPADTAVSYCAAVYLRVDRYLQVYRYDYWGQGTQVTVSS,high polyreactivity
5,QVQLVESGGGLVQAGGSLRLSCAASGRIFVKNAMGWYRQAPGKERELVAAISSSSGSTYYADSVKGRFTISRDNAKNTVYLQMNSLKPEDTAVYYCATVRWYYSRPRPTTAYGYWGQGTQVNVSS,high polyreactivity
6,QVQLVESGGGLVQAGGSLRLSCAASGRIFVKYAMGWYRQAPGKERELVAGISRSVGSTYYADSVKGRFTISRDNAKNTVYLQMNSLKPEDTAVYYCATRQKRVGYYYWGQGTQVTVSS,high polyreactivity
7,QVQLVESGGGLVQAGGSLRLSCAASGRIFVNNAKGWYRPAPGKERELVAAISRGASTYYADSVKGRFTISRDNAKNTVYLQLNSLKAEDTAVYYGNARTDAYGASEMGYWGQGTQVTVSS,high polyreactivity
8,QVQLVESGGGLVQAGGSLRLSCAASGRIFVNNAMGWYRQAPGKERELVAAITGRGTRTYYADSVKGRFTISRDNAKNTVYLQMNSLKPEDTADYYCNAVSTAVIGYEYDYWGQGTQVTVSS,high polyreactivity
9,QVQLVESGGGLVQAGGSLRLSCAASGRIFVPYVMGWYRQAPGKDRELVASISDSDTSTYYADSVKGRFTISRDNAKNNVYLQMNSMKPEDTAVYYCNVDYWGQGTQVTVSS,low polyreactivity
10,QVQLVESGGGLVQAGGSLRLSCAASGRIFVQNAMGWYRQAPGKERELVAAINWSVGSTYYADSVKGRFTISRDNAKNTVYLQMNSLKPEDTAVYYCAAGNLYYAEYDYWGQGTQVTVSS,low polyreactivity
11,QVQLVESGGGLVQAGGSLRLSCAASGRIFVRYAMGWYRQAPGKEREWVAVSTTGGARTRDADSVKGRFTISRDNAKNSVYLQMNSLKPEDTGVYYCAAQTYSQRWYDYWGQGTQVTVSS,high polyreactivity
12,QVQLVESGGGLVQAGGSLRLSCAASGRIFVSHAMGWYRQAPGKERALVAGITWTSGSTYYADSVKGRFTISRDNAKNTVYLQMKSLKPEDTAVYYCAAEYWYGNAFDYWGLGTQVTVSS,low polyreactivity
13,QVQLVESGGGLVQAGGSLRLSCAASGRIFVSNAMGWYRQAPGKERELVAAISKSGGRTYYADSVKGRFTISRDNAKNTVYLQMNSLKPEDTAVYYCNAVISLPGNKYDYWGQGTQVTVSS,high polyreactivity
14,QVQLVESGGGLVQAGGSLRLSCAASGRIFVSYAMGWYRQAPGKERELVAAISNSGSRTYYADSVKGRFTISRDNAKNTVYLQMNSLKPEDTAVYYCAAGQGAGVDYWGQGTQVTVSS,high polyreactivity
15,QVQLVESGGGLVQAGGSLRLSCAASGRIFVSYTMGWYRQAPGKERELVAAIRGTGSTYYADSVKGRFTISRDNAKNTVYLQMNSLKPEDTAVYYCNADYLRWDIWYWHGYDYWGQGTQVTVSS,high polyreactivity
16,QVQLVESGGGLVQAGGSLRLSCAASGRIFVSYVMGWYRPAPGKEREFVAAIRRSGSSTYYADSVKGRFTISRDNAKNTVYLQINRLKPEDTAVYYCAAYQRSRTLRRYDYWGQGTQVTVSS,high polyreactivity

row,Sequence,polyreactivity (PSR sort gate)
1,QVQLVESGGGLVQAGGSLRLSCAASGRIFVTNAMGWYRQAPGKERELVAAISYRGGRTYYADSVKGRFTISRDNAKNTVYLQMNSLKPEDTAVYYCNAVTRWPFDYWGQGTQVTVSS,high polyreactivity
2,QVQLVESGGGLVQAGGSLRLSCAASGRIFVTNTMGWYRQAPGKERELVAAIDNSAGSTYYADSVKGRFTISRDNAKNTVYLQMNSLKPEDTAVYYCAADYPPYYGYGYWGQGTQVTVSS,low polyreactivity
3,QVQLVESGGGLVQAGGSLRLSCAASGRIFVVYAMGWYRQAPGKERELVAAITYGGGSTHYADSVKGRFTISRDNAKNTVYLQMNSLKPEDTAVYYCAADLFYHSYGYEYWGQGTQVTVSS,low polyreactivity
4,QVQLVESGGGLVQAGGSLRLSCAASGRIFVVYVMGWYRQAPGKEREFVAAITWGGGNTYYADSVKGRFTISRDNAKNTVYLQMNSLIPEDTAVYYCAAAPRKYVWMDYWGQGTQVTVSS,low polyreactivity
5,QVQLVESGGGLVQAGGSLRLSCAASGRIFVVYVMGWYRQATGKEREFVAAITWGGGNTYYADSVKGRFTISRDNAKNTVYLQMNSLKPEDTAVYYCAAAPRKYVWMDYWGQGTQVTVSS,low polyreactivity
6,QVQLVESGGGLVQAGGSLRLSCAASGRIFVWNAMGWYRQAPGKERELVAAITSSGGNTYYADSVKGRFTISRDNAKNTVYLQMNSLKPEDTAVYYCAARSSSRTQATTRYGYWGQGTQVTVSS,high polyreactivity
7,QVQLVESGGGLVQAGGSLRLSCAASGRIFVYNAMGLYRQAPGKERELVAAISSTGSTNYADSVKGRFTISRDNAKNTVYLQMNSLKPEDTAVYYFAAVYYFYGYSGYYGQYDYWGQGTQVTVSS,low polyreactivity
8,QVQLVESGGGLVQAGGSLRLSCAASGRIFVYNTMGWYRQAPGKERELVAAIDWSGGSKYYADSVKGRFTISRDNAKNTVYLQMNSLKPEDTAVYYCNADSLIGMDYWGQGTQVTVSS,high polyreactivity
9,QVQLVESGGGLVQAGGSLRLSCAASGRIFVYNVMGRYRQAPGKERDLVAAISWGTGSTYADSVKGRFTISRDNAKNTVYLQMNSLKPEDTAVYYCAADSFIPPYDHWGLGTQVTVSS,low polyreactivity
10,QVQLVESGGGLVQAGGSLRLSCAASGRIFVYNVMGWYRQAPGKERELVAAISWGTGSTYADSVKGRFTISRDNAKNTVYLQMNSLKPEDTAVYYCAADSFIPPYDHWGQGTQVTVSS,low polyreactivity
11,QVQLVESGGGLVQAGGSLRLSCAASGRIFVYYAMGWYRQAPGKEMELVASISYSGASTYYADSVKGRFTISRDNAKNTVYLQMNSLKPEDTAVYYCNTDGDDFFHVIYDYWGQGTQVTVSS,low polyreactivity
12,QVQLVESGGGLVQAGGSLRLSCAASGRIFVYYAMGWYRQAPGKEREFVAAISSRDDSTYYADSVKGRFTISRDNAKNTVYLQMNSLKPEDTAVYYCAADWRLGVGYDYWGQGSQVTVSS,low polyreactivity
13,QVQLVESGGGLVQAGGSLRLSCAASGRIFVYYPMGWYRQAPGIERELVAAINAGGSTNYADSVKGRFTISRDNAKNTVYLQMNSLKPEDTAVYYCAAVRRSRYSYRGYYWGQGTQVTVSS,high polyreactivity
14,QVQLVESGGGLVQAGGSLRLSCAASGRIFVYYTMGWYRQAPGKERELVAAITGSGGSTYYADSVKGRFTISRDNAKNTVYLQMNSLKPEDTAVYSCAVYDSYRKFKYWGQGTQVTVSS,high polyreactivity
15,QVQLVESGGGLVQAGGSLRLSCAASGRIFWANAMGWYRQAPGKERELVAAINRRTGITYYADSVKGRFTISRDNAKNTVYLQMNSLNPEDTAVYYCAAARGKDGYSGQGTQVTVSS,high polyreactivity
16,QVQLVESGGGLVQAGGSLRLSCAASGRIFWANAMGWYRQAPGKERELVAAISNSGVSTYYADSVKGRFTISRDNAKHTVYLQMNSLKPEDTAVYYCAADRYRKYYYWGQGTLVTVSS,high polyreactivity
